B1: DVD516 (bispecific antibody, human IgG1, lambda)
heavy: not shown
light: DIQMTQSPSSLSASVGDRVTITCRASQVIRRSLAWYQQKPGKAPKLLIYAASNLASGVPSRFSGSGSGTDFTLTISSLQPEDFATYYCQQSNTSPLTFGQGTKVEIKRTVAAPQAVVTQESALTTSPGETVTLTCRSSTGAVTTSNYANWVQEKPDHLFTGLIGGTNNRAPGVPARFSGSLIGDKAALTITGAQTEDEAIYFCALWYSNHWVFGGGTKLTVLGQPKAAPSVTLFPPSSEELQANKATLVCLISDFYPGAVTVAWKADSSPVKAGVETTTPSKQSNNKYAASSYLSLTPEQWKSHRSYSCQVTHEGSTVEKTVAPTECS
notes: DVD-Ig; outer AB071 (VEGF), inner AB073 (DLL4); HC short, LC short linker; also called DVD516H; DVD516L
B2: DVD492 (bispecific antibody, human IgG1, kappa)
heavy: not shown
light: DIQMTQSPSSLSASVGDRVTITCRASQVIRRSLAWYQQKPGKAPKLLIYAASNLASGVPSRFSGSGSGTDFTLTISSLQPEDFATYYCQQSNTSPLTFGQGTKVEIKRTVAAPDIQMTQSSSYLSVSLGGRVTITCKASDHINNWLAWYQQKPGNAPRLLISGATSLETGVPSRFSGSGSGKDYTLSITSLQTEDVATYYCQQYWSIPLTFGAGTKLELKRTVAAPSVFIFPPSDEQLKSGTASVVCLLNNFYPREAKVQWKVDNALQSGNSQESVTEQDSKDSTYSLSSTLTLSKADYEKHKVYACEVTHQGLSSPVTKSFNRGEC
notes: DVD-Ig; outer AB071 (VEGF), inner AB072 (DLL4); HC short, LC short linker; also called DVD492H; DVD492L
B3: DVD589 (bispecific antibody, human IgG1, kappa)
heavy: not shown
light: DIVLTQSPDSLAVSLGERVTMNCKSSQSLLNSGMRKSFLAWYQQKPGQSPKLLIYWASTRESGVPDRFTGSGSGTDFTLTISSVQAEDVAVYYCKQSYHLFTFGSGTKLEIKRTVAAPDIQMTQSPSSLSASVGDRVTITCRASQDVSTAVAWYQQKPGKAPKLLIYSASFLYSGVPSRFSGSGSGTDFTLTISSLQPEDFATYYCQQSYTTPPTFGQGTKVEIKRTVAAPSVFIFPPSDEQLKSGTASVVCLLNNFYPREAKVQWKVDNALQSGNSQESVTEQDSKDSTYSLSSTLTLSKADYEKHKVYACEVTHQGLSSPVTKSFNRGEC
notes: HC linker long, LC linker short; also called DVD589VH; DVD589VL
B4: DVD551 (bispecific antibody, human IgG1, kappa)
heavy: not shown
light: AIQMTQSSSSFSVSLGDRVTITCKASEDIYNRFAWYQQKPGNAPRLLISGAASLEAGVPSRFSGSGSGQDYTLSITSLQTEDVATYYCQQYWSTPWTFGGGTKLEIKRTVAAPSVFIFPPDIQMTQSPSSLSASVGDRVTITCRASQDVSTAVAWYQQKPGKAPKLLIYSASFLYSGVPSRFSGSGSGTDFTLTISSLQPEDFATYYCQQSYTTPPTFGQGTKVEIKRTVAAPSVFIFPPSDEQLKSGTASVVCLLNNFYPREAKVQWKVDNALQSGNSQESVTEQDSKDSTYSLSSTLTLSKADYEKHKVYACEVTHQGLSSPVTKSFNRGEC
notes: HC linker long, LC linker long; also called DVD-Ig DVD551
B5: DVD543 (bispecific antibody, human IgG1, kappa)
heavy: not shown
light: AIQMTQSSSSFSVSLGDRVTITCKASEDIYNRFAWYQQKPGNAPRLLISGAASLEAGVPSRFSGSGSGQDYTLSITSLQTEDVATYYCQQYWSTPWTFGGGTKLEIKRTVAAPDIQMTQSPSSLSASVGDRVTITCRASQDVSTAVAWYQQKPGKAPKLLIYSASFLYSGVPSRFSGSGSGTDFTLTISSLQPEDFATYYCQQSYTTPPTFGQGTKVEIKRTVAAPSVFIFPPSDEQLKSGTASVVCLLNNFYPREAKVQWKVDNALQSGNSQESVTEQDSKDSTYSLSSTLTLSKADYEKHKVYACEVTHQGLSSPVTKSFNRGEC
notes: HC linker short, LC linker short; also called DVD-Ig DVD543
B6: DVD559 (bispecific antibody, human IgG1, kappa)
heavy: not shown
light: B5 light
notes: HC linker long, LC linker short; also called DVD-Ig DVD559
B7: DVD583 (bispecific antibody, human IgG1, kappa)
heavy: not shown
light: DIVLTQSPDSLAVSLGERVTMNCKSSQSLLNSGMRKSFLAWYQQKPGQSPKLLIYWASTRESGVPDRFTGSGSGTDFTLTISSVQAEDVAVYYCKQSYHLFTFGSGTKLEIKRTVAAPSVFIFPPDIQMTQSPSSLSASVGDRVTITCRASQVIRRSLAWYQQKPGKAPKLLIYAASNLASGVPSRFSGSGSGTDFTLTISSLQPEDFATYYCQQSNTSPLTFGQGTKVEIKRTVAAPSVFIFPPSDEQLKSGTASVVCLLNNFYPREAKVQWKVDNALQSGNSQESVTEQDSKDSTYSLSSTLTLSKADYEKHKVYACEVTHQGLSSPVTKSFNRGEC
notes: outer AB047 (PlGF), inner AB071 (VEGF); HC linker long, LC linker long; also called DVD-Ig DVD583
B8: DVD581 (bispecific antibody, human IgG1, kappa)
heavy: not shown
light: DIVLTQSPDSLAVSLGERVTMNCKSSQSLLNSGMRKSFLAWYQQKPGQSPKLLIYWASTRESGVPDRFTGSGSGTDFTLTISSVQAEDVAVYYCKQSYHLFTFGSGTKLEIKRTVAAPSVFIFPPDIQMTQSPSSLSASVGDRVTITCRASQDVSTAVAWYQQKPGKAPKLLIYSASFLYSGVPSRFSGSGSGTDFTLTISSLQPEDFATYYCQQSYTTPPTFGQGTKVEIKRTVAAPSVFIFPPSDEQLKSGTASVVCLLNNFYPREAKVQWKVDNALQSGNSQESVTEQDSKDSTYSLSSTLTLSKADYEKHKVYACEVTHQGLSSPVTKSFNRGEC
notes: HC linker long, LC linker long; also called DVD-Ig DVD581
B9: DVD561 (bispecific antibody, human IgG1, kappa)
heavy: not shown
light: AIQMTQSSSSFSVSLGDRVTITCKASEDIYNRFAWYQQKPGNAPRLLISGAASLEAGVPSRFSGSGSGQDYTLSITSLQTEDVATYYCQQYWSTPWTFGGGTKLEIKRTVAAPDIQMTQSPSSLSASVGDRVTITCRASQVIRRSLAWYQQKPGKAPKLLIYAASNLASGVPSRFSGSGSGTDFTLTISSLQPEDFATYYCQQSNTSPLTFGQGTKVEIKRTVAAPSVFIFPPSDEQLKSGTASVVCLLNNFYPREAKVQWKVDNALQSGNSQESVTEQDSKDSTYSLSSTLTLSKADYEKHKVYACEVTHQGLSSPVTKSFNRGEC
notes: outer AB074 (PlGF), inner AB071 (VEGF); HC linker long, LC linker short; also called DVD-Ig DVD561
B10: DVD470 (bispecific antibody, human IgG1, kappa)
heavy: not shown
light: DIQMTQSPSSLSASVGDRVTITCSASQDISNYLNWYQQKPGKAPKVLIYFTSSLHSGVPSRFSGSGSGTDFTLTISSLQPEDFATYYCQQYSTVPWTFGQGTKVEIKRTVAAPSVFIFPPDIQMTQSPSSLSASVGDRVTITCRASQDVSTAVAWYQQKPGKAPKLLIYSASFLYSGVPSRFSGSGSGTDFTLTISSLQPEDFATTYYCQQSYTGTVTFGQGTKVEIKRTVAAPSVFIFPPSDEQLKSGTASVVCLLNNFYPREAKVQWKVDNALQSGNSQESVTEQDSKDSTYSLSSTLTLSKADYEKHKVYACEVTHQGLSSPVTKSFNRGEC
notes: DVD-Ig; also called VEGF and DLL4 DVD-Ig, HC linker long, LC linker long
B11: DVD482 (bispecific antibody, human IgG1, kappa)
heavy: not shown
light: B10 light
notes: DVD-Ig; also called VEGF and DLL4 DVD-Ig, HC linker short, LC linker long
B12: DVD474 (bispecific antibody, human IgG1, kappa)
heavy: not shown
light: DIQMTQSPSSLSASVGDRVTITCRASQVIRRSLAWYQQKPGKAPKLLIYAASNLASGVPSRFSGSGSGTDFTLTISSLQPEDFATYYCQQSNTSPLTFGQGTKVEIKRTVAAPSVFIFPPDIQMTQSPSSLSASVGDRVTITCRASQDVSTAVAWYQQKPGKAPKLLIYSASFLYSGVPSRFSGSGSGTDFTLTISSLQPEDFATTYYCQQSYTGTVTFGQGTKVEIKRTVAAPSVFIFPPSDEQLKSGTASVVCLLNNFYPREAKVQWKVDNALQSGNSQESVTEQDSKDSTYSLSSTLTLSKADYEKHKVYACEVTHQGLSSPVTKSFNRGEC
notes: DVD-Ig; outer AB071 (VEGF), inner AB015 (DLL4); also called VEGF and DLL4 DVD-Ig, HC linker long, LC linker long
B13: DVD486 (bispecific antibody, human IgG1, kappa)
heavy: not shown
light: B12 light
notes: DVD-Ig; outer AB071 (VEGF), inner AB015 (DLL4); also called VEGF and DLL4 DVD-Ig, HC linker short, LC linker long
B14: DVD476 (bispecific antibody, human IgG1, kappa)
heavy: not shown
light: DIQMTQSPSSLSASVGDRVTITCSASQDISNYLNWYQQKPGKAPKVLIYFTSSLHSGVPSRFSGSGSGTDFTLTISSLQPEDFATYYCQQYSTVPWTFGQGTKVEIKRTVAAPDIQMTQSPSSLSASVGDRVTITCRASQDVSTAVAWYQQKPGKAPKLLIYSASFLYSGVPSRFSGSGSGTDFTLTISSLQPEDFATTYYCQQSYTGTVTFGQGTKVEIKRTVAAPSVFIFPPSDEQLKSGTASVVCLLNNFYPREAKVQWKVDNALQSGNSQESVTEQDSKDSTYSLSSTLTLSKADYEKHKVYACEVTHQGLSSPVTKSFNRGEC
notes: DVD-Ig; also called VEGF and DLL4 DVD-Ig, HC linker long, LC linker short

One test deals with T1, DLL4 ECD/His tag (R&D 1506-D4-050) (UniProt Q9NR61 27-529).
T1 construct: extracellular domain; Bought antigen coated on the ELISA plate; not shown: His tag
Description: direct bind ELISA, DLL4 on plate; DLL4 VD C-term.; HC Short, LC Short. For orientation: In an ELISA, binding on a coated surface is turned into a signal by an enzyme label.
As usually defined, the EC50 is the midpoint of the concentration-response curve. Low readings indicate greater potency, high ones weaker potency. Consider B1, for which the EC50 is 4.33 nM. As to B2, the concentration for a half-maximal effect (EC50) turned out to be 1.77 nM.

A further test has as its target T2, VEGF (UniProt P15692 27-191, limits assumed).
T2 construct: Bought antigen coated on the ELISA plate; also called vascular endothelial growth factor
Description: direct bind ELISA, antigen on plate; C-terminal VD.
T2 sequence (P15692 other isoform, or with tags, fused parts or gaps limits assumed): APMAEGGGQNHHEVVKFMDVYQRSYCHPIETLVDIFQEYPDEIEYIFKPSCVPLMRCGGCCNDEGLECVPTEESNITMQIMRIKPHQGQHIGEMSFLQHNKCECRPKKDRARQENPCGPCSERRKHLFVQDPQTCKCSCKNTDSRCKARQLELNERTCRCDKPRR
Description: (§1) Enzyme Linked Immunosorbent Assays to screen for antibodies that bind a desired target antigen were performed as follows. […] Plates were washed four times with PBS containing 0.02% Tween 20. Plates were blocked by the addition of 300 μL/well blocking solution (non-fat dry milk powder, various retail suppliers, diluted to 2% in PBS) for ½ hour at room temperature. Plates were washed four times after blocking with PBS containing 0.02% Tween 20.
(§2) Plates were washed 4 times with PBS containing 0.02% Tween 20.
B3 registered an EC50 of 1360 nM.

For another test, the target named is T3, PlGF (UniProt P49763-2 21-149, limits assumed).
T3 construct: bought antigen coated on the ELISA plate; also called Placental GF
T3 sequence (looked up): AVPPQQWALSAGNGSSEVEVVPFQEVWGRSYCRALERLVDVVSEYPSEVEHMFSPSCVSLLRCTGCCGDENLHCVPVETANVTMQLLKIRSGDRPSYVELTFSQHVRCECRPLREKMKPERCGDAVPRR
Description: direct bind ELISA, N-terminal VD.
B4 returned a half-maximal effective concentration (EC50) of 97 nM.

For B5, the EC50 came out at 0.14 nM. Turning to B6, the EC50 turned out to be 0.13 nM. Still for that read-out and setting: for B7 the value was 0.32 nM. Same read-out and setting: for B8 the value was 0.39 nM; for B9, 1.04 nM.

In the next test the target is T4, DLL4 (human, UniProt Q9NR61 27-685).
T4 construct: whole, on cells; also called human DLL4
Kind of test: flow cytometry on 293G-human DLL4 cells; DLL4 VD C-terminal.
Take B10: the EC50 is 1.72 nM. B11: the EC50 worked out at 3.25 nM.

The molecule B12 came in with a half-maximal effective concentration (EC50) of 2.19 nM. In the case of B13, the EC50 is 2.09 nM. The molecule B14 had an EC50 of 11.7 nM.

For a further test, the target named is T5, VEGF (UniProt P15692 27-191, limits assumed).
T5 construct: bought antigen coated on the ELISA plate
Kind of test: direct bind ELISA, C-terminal VD.
T5 sequence (P15692 other isoform, or with tags, fused parts or gaps limits assumed): as the sequence (P15692 other isoform, or with tags, fused parts or gaps limits assumed) above
Description: as §1, §2
B4 had a concentration for a half-maximal effect (EC50) of 1590 nM. Still for that read-out and setting: for B5 the value was 1120 nM; for B6, 39.2 nM. Still for that read-out and setting: in the case of B7 it was 560 nM; in that of B8, 35.9 nM. Same read-out and setting: in the case of B9 it was 241 nM.

The next test concerns the target T6, PlGF (UniProt P49763-2 21-149, limits assumed).
T6 construct: Bought antigen coated on the ELISA plate; also called Placental GF; placental growth factor
T6 sequence (looked up): T3 sequence (looked up)
Kind of test: direct bind ELISA, antigen on plate; N-terminal VD.
Description: as §1, §2
The molecule B3 yielded a concentration giving a half-maximal response (EC50) of 0.12 nM.

The values are drawn from patent publication US20100260668A1 (published 2010).
